Results as given in publication PMC4018323 (Cell, 2014).
Substitutions are numbered along the chain they refer to. Each block holds one binder with its values, some of them ahead of it.

Target: T1, 6xHis-SUMO-tagged MYO18A motor domain (aa 408-1,242) (UniProt Q92614 408-1242)
T1 sequence (looked up): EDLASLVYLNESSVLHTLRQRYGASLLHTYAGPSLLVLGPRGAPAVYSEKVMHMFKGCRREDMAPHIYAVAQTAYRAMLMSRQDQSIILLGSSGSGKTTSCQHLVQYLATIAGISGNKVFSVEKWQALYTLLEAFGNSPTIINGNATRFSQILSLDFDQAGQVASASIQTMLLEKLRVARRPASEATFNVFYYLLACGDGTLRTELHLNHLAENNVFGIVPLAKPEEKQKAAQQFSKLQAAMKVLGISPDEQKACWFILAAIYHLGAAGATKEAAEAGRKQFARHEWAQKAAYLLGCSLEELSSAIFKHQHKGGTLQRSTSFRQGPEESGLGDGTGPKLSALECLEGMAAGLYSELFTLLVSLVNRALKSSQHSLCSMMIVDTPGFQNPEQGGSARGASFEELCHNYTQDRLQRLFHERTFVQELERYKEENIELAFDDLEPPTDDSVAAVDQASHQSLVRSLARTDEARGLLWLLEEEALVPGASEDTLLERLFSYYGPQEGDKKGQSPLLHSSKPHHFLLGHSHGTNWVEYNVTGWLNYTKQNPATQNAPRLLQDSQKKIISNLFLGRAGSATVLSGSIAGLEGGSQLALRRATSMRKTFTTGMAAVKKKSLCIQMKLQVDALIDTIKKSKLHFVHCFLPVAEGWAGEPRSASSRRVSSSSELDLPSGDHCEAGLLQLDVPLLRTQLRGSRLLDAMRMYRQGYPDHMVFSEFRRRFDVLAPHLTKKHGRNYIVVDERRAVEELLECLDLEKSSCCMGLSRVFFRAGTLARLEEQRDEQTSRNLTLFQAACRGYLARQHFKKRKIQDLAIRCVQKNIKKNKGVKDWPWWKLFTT
Assay: pull-down

fold of interaction versus WT: 2.2 fold
B1: GOLPH3 DQ-DVQ phosphomimetic mutant, purified, bacterially expressed (natural protein, UniProt Q9H4A6 1-298, looked up)
chain: MTSLTQRSSGLVQRRTEASRNAADKERAAGGGAGSSEDDAQSRRDEQDDDDKGDSKETRLTLMEEVLLLGLKDREGYTSFWNDCISSGLRGCMLIELALRGRLQLEACGMRRKSLLTRKVICKSDAPTGDVLLDEALKHVKEDQPPEDVQNWIELLSGETWNPLKLHYQLRNVRERLAKNLVEKGVLTTEKQNFLLFDMTTHPLTNNNIKQRLIKKVQEAVLDKWVNDPHRMDRRLLALIYLAHASDVLENAFAPLLDEQYDLATKRVRQLLDLDPEVECLKANTNEVLWAVVAAFTK

fold of interaction versus WT: 1.9 fold
B2: GOLPH3 EQ-EVQ phosphomimetic mutant, purified, bacterially expressed (natural protein, UniProt Q9H4A6 1-298, looked up)
chain: B1 chain with D143E, D148E
